# Reference: PMC3790964 (Biochimica et Biophysica Acta, 2013)
# B1: stomatin (natural protein, human (endogenous in erythrocytes), UniProt P27105 1-288, looked up)
# chain: MAEKRHTRDSEAQRLPDSFKDSPSKGLGPCGWILVAFSFLFTVITFPISIWMCIKIIKEYERAIIFRLGRILQGGAKGPGLFFILPCTDSFIKVDMRTISFDIPPQEILTKDSVTISVDGVVYYRVQNATLAVANITNADSATRLLAQTTLRNVLGTKNLSQILSDREEIAHNMQSTLDDATDAWGIKVERVEIKDVKLPVQLQRAMAAEAEASREARAKVIAAEGEMNASRALKEASMVITESPAALQLRYLQTLTTIAAEKNSTIVFPLPIDMLQGIIGAKHSHLG
# Target: the molecule itself
# Assay: cross-linking + affinity purification with mass spectrometry
protein,measurement,value
B1,stoichiometry N,2
